# According to the DeepSol protein solubility set:
# Assay: soluble on expression in E. coli; label from the status in PepcDB or PDB records
row,Sequence,soluble on expression in E. coli
1,EKIAHMAVSRGNGARLLVDGEATFAALFAALDAARHYVLIQFYIVRDDDLGLELRDRLIAAAQRGVKVRFLTDAIGSYGLSDNYIEDLRAAGIDIANPRKQRGPNTRFQVNYRNHRKTVVVDGQTGFIGGHNVGVEYLGQDPVMGRWRDTHVQITGPSVLQLQLVFAEDWHWARGEDLLDLLSWETRLDPQDADALIVATGPGDRTESGAMM,not soluble
2,MGSDKIHHHHHHMGLEQDDEGGARRACVIVIGNQKGGSGKSTVAMHLVVSLARAGLRTGSIDLDAGQATLTRYLENRRAFAEKRGLDLPSPEHVPMVPGTSLEADIRRLEHSMLAFHEEVDVVVIDTPGSDTALNRAAHALADVLITPLNDSFIDLDVMARIDGDSMTITGPSPYAAAVWEAKQARARRDGTSMRWIVMRNRLSHLDARNKRDMEDALNDLSRRIGFSVVPGLGERVIYRELFLNGLTLLDLKDKGTGVDISMSHVAARQELRALLAAIGMPKSIGL,not soluble
3,MSLGDEGWQTVIGLEIHAQIKTGKKLFSKASTSYGHVPNTNVDVHDAAFPGTLPVLDINAIRLSIMTALALNCQINPRSTFDRKHYFYHDIPASYQITQHYNPLAWNGHLEIREGDNGSKRTFNIGIKQLQVEQDTAKSQTVGDAVLVDLNRAGTGLMEIVTDPDMRSPEEAGAFVKKLQGLLRRVGSADGDMEKGNLRVDVNVSVHRPGMPFGTRCEIKNINSVRFLQAAIESERQRHIAHYCTSPLEPLAQETRGFNELTLQTYSLRSKEEATDYRYMPDHNLPAIIIDDGYLDSLWKNLPEMPWQSVERLVKTYGVTKRDAETLLGLDEYSAQGIAYFEEVVEQDKKIAKKATNWIAHELLGQLGKAIRPWTPTIVPAPLMHELVTAVESREITGTTGKAIVKHFVSLPESASLPPSFAELLAELGLTPSAASVEDLTETCKKAMNNQPKAVADFKKGNEKVVMRLVGEVMKLSGGKADAMKAKDILLDLLKDEGHHHHHH,not soluble
4,MAIQVKASLRKNPQDKKAAGKYYAQVVLAPEMTQRQIIDQIADRCTVTGSDVKAVLDALMTVIKRNLANGSPIRLGDLGSFRPSVSGIGSENVDKFTASNVKKARVIYVPSAEIKEAVAMYAFSKVGATAEGGNTEKPGGGDIDNPGGGDEEAPDPTVLEHHHHHH,soluble
5,MGHHHHHHSHMGNNSESKGSASDSKGAETFTYKAENGNVKIPKHPKRVVVMADGYYGYFKTLGINVVGAPENVFKNPYYKGKTNGVENIGDGTSVEKVIDLNPDLIIVWTTQGADIKKLEKIAPTVAVKYDKLDNIEQLKEFAKMTGTEDKAEKWLAKWDKKVAAAKTKIKKAVGDKTISIMQTNGKDIYVFGKDFGRGGSIIYKDLGLQATKLTKEKAIDQGPGYTSISLEKLPDFAGDYIFAGPWQSGGDDGGVFESSIWKNLNAVKNGHVYKMDPIGFYFTDPISLEGQLEFITESLTK,soluble
6,SLTNKLESNYNKIACNIFYDKYKNANEIIKALKLIDIDDNDFKKSFSIYSKKATSGNDEKIVKFLLFNIERHLSGGICDEQIATIEHILPSSLNDEKVHKLGNYILLEAKYNQQLKNKNFKEKIDIYSKSNFKLAQYVAENFKTWDTKSIDQYQNFLAKQALALWKF,soluble
7,MGSDKIHHHHHHMAEFTHLVNERRSASNFLSGHPITKEDLNEMFELVALAPSAFNLQHTKYVTVLDQDVKEKLKQAANGQYKVVSSSAVLLVLGDKQAYQQAADIYEGLKVLGILNKQEYDHMVQDTVSFYENRGEQFKRDEAIRNASLSAMMFMLSAAAAGWDTCPMIGFDAEAVKRILNIDDQFEVVMMITIGKEKTESRRPRGYRKPVNEFVEYM,soluble
8,MAHHHHHHMSQNKLYKTNYGYNNPILLNKNERNIKTYVNQETMTNKLLTTYNRSPLQSNYEHNIPKIIHSSTIKKQGVINENNGDKIYKPNYRDMNNLYNSKYVFSKNTPEYINGRKQMITVYDNIKNEERNKSINYYKNKNMIKIPSSYNSNNGNKIKSNNVKDGVLQLEKGSIQNVAKNMNTFHNKSNENGKFIKKLNNSNYKEVTSNVDEIRLLNKSLSAKISSSIKTNYEKSNILDHKKNTNVKVSKISIENKKYNIRKKENMKWAPKYNNNNNNNNNKDHKNMIIESVKVVKNPKEINKKKTKIVQNKYKNPLPSYICLHFHDNSLNLNNGLKIFNDMITVDKNQRMKKWNGYEWDVIEKDFHFLIKARYDNKGNIWCINKSYEVLKIMRNKLKNFGHLGKEEIIDIGFDKKNILWCINRKGQLLKWVKTKWDNIQYKGFHKLICFSFDKKGELWAINLKKELAIWNKKNKCWDEKYIKDNLKISCIDFDGDGKLWVVSNSGALLTYSKDQWINFGLVCLDELICISFKKLQE,not soluble
9,MGSSHHHHHHSSGLVPRGSHMLKQKELIANVKNLTESDERITACMMYGSFTKGEGDQYSDIEFYIFLKHSITSNFDSSNWLFDVAPYLMLYKNEYGTEVVIFDNLIRGEFHFLSEKDMNIIPSFKDSGYIPDTKAMLIYDETGQLENYLSEISGARPNRLTEENANFLLCNFSNLWLMGINVLKRGEYARSLELLSQLQKNTLQLIRMAEKNADNWLNMSKNLEKEISLENYKKFAKTTARLDKVELFEAYKNSLLLVMDLQSHLIEQYNLKVTHDILERLLNYISE,soluble
10,MGSSHHHHHHSSGRENLYFQGEYDYTDFINYYDKFKVIVYNVLKKLPLNDEIRKPVIEYYLNCIDYNVKKGKHIRGKILVLISSLSSAYSNIKRDSIYLLGWVVEAIQALILIADDIMDSGKFRRGAPCWYIVHGQSNAINDIFFLKMLSLSLIFELSSVFGNDIVMKIQKIYNESIFFTVLGQHLDLSYFDLSKADKISERYFSMVEMKTSRYTFYMPVFFGLTLSEIQVSSAQLNLIEAILYKLGEFYQVHNDVSDYLFNDSNADDICRFKLTWPLQKSFEIADEEMKLKISENYGKNSSLVKDCYNLLKINEHYLEYQRNALDYLIKLVKDITDDSLQKVFIHLIHQISELITNSRSNADSNNSL,soluble
11,MTTTPIADQAAVLAEGMADQTPSEALEAFGAEQAELDAAGVPSGIATAGSLMPDASLLDVHGNATTLQQVREGRPAVVVFYRGAWCPYCNLALRTYERELAPRLAERGVSMIAVSPQRPDGSLTMAQTNDLSYDVLSDPGNHIGRALGIVTRPTDRVQHAQASLGLDLTEVNADGTPDILMPTVAIVDAEGVLRWIDVHPNYVTRSEPARILEALARAVR,not soluble
12,MGSDKIHHHHHHMPPNFHADTPLAQRMRPTTLDTIIGQEHLLAVGAPLRRLVEQGHLPSIILHGEAGIGKTTIAMLLADAVGRPFHALSALNTGVKQLREVLDSKDSLSFESPVVFIDEIHRFNKAQQDALLGAVESGDITLIGATTENPSFSVNNALLSRCQVYRLEPLTPEQISAVLQRALLEDNVLKQLSIDLQAQQTISQLAHGDARKSLNLLELAIQTADTKQSPIIIDDALVARVAQTALVRYDKDGEQHYDIVSAMIKSVRGSDPDAALYWMARMLVGGEPADFIARRLVILASEDIGNANPNALLLADAALRSVQSIGMPEARIILGQVVVYLATSAKSNSTYNAINAAMSLAEKDASPVPLHLRNGVTKLMRQQGYGQDYVYPHNYPNHYYAQNYLPDKLIGTRFYEFADNQREQHSKQFVDWLKSQAASND,not soluble
13,MGSDKIHHHHHHMRVGLTLYGSLDEQSGGFRYDRKLVEGLRAAGDTVECIQLPWRDYHRGLLDNGSRKLRQRLDVDVDVMLQDELAHPSLVRTNRALSYPIVSIVHHLRASEPRRLAPLYRAVERRYLGTVQAVVCNSATTRNVVTNLGVDPEDTVVAPPAGDQFDPDIDRATIERRATTEPLQVVFVGNVSPRKGLDTLVDGVAAAAVDIDLTVVGRHVDAAHVTSVQERVREHDLADRVQFAGRLPDGELAKTLRSSHVLAVPSRYEGFGIVYLEGMSFGLPALATRAGGAADIVTDDETGVLVDPDDSAAVARELERFATDRDRLAEMGWAARRNYETHPDWEETVGRVRDLLSDIVQPTEVPA,not soluble
14,GPGSMASTSGPASLEEAALASLGNYSPEQLQMAETALRAVLMEKVQALAAEHGDAFIQSLVQKEIARTRKMETELANVKKRLGVQERCVDSMRMDVRKVKAQEEKSKYICQNLQETARRREQLTEKMQPEMEAYRSDVRERVSENVQSIWAECEKRRERVETVEAEVTELEAGLAHKKETFERSFAEFQDGLKGRTAEYQELIVAYQEATKEVELIEAQLMLVRRERQSVETTRAALQQQLEVYEKQFDGFAEAVMKPEDVEALAKRQHDQAQMRITELEAEKTNVHQQRLQMDKELTDLRAKHASLKREMQQLEKAKTAAEKKCRQAQQSRQEKK,not soluble
15,MNRNRRDGPQRDVKRERRSRSRSPRRSRIGAAVGSNNGNSSSNNRMVFITNIAYEARWVDLKSLVREKGGEVAFCELLEDRNGKPKGNAVVEFETREGAEKCVENLQKFDWKGRTIIAKEIRDPNAFFRTIKTETGIDYLSRTGGGGAGGRGPPPKDLDRPTRTGTYDLFGLNMEFLRQHNIEPPLCERIFIANLAFNVGTDKLYEVFGMAGKITWMDFRIDKEGKSKGVCVIQYTHPIEAVQAVSMLNGQRLFDRNLVVKMDRFDKELEHKEGGLPRGLESIGMGLGAEGAPLSNVHGMFPGDASVPFTAPAAPFVGGPQVVSAGGFGGVVEQANFARSVMNNGPFGGNAGVGGAGGATFAQPDVFGVNGAGGLAGAATPQATRVIIIRNLPSDYTWQIVRDRVRNFGEVDSVDMMAPGAARIRFATFQDAERARAALYGSTVEGRMISVDYA,soluble
16,MIFSDWPWRHWRQVRGETIALRLNDEQLNWRELCARVDELASGFAVQGVVEGSGVMLRAWNTPQTLLAWLALLQCGARVLPVNPQLPQPLLEELLPNLTLQFALVPDGENTFPALTSLHIQLVEGAHAATWQPTRLCSMTLTSGSTGLPKAAVHTYQAHLASAQGVLSLIPFGDHDDWLLSLPLFHVSGQGIMWRWLYAGARMTVRDKQPLEQMLAGCTHASLVPTQLWRLLVNRSSVSLKAVLLGGAAIPVELTEQAREQGIRCFCGYGLTEFASTVCAKEADGLADVGSPLPGREVKIVNNEVWLRAASMAEGYWRNGQLVSLVNDEGWYATRDRGEMHNGKLTIVGRLDNLFFSGGEGIQPEEVERVIAAHPAVLQVFIVPVADKEFGHRPVAVMEYDHESVDLSEWVKDKLARFQQPVRWLTLPPELKNGGIKISRQALKEWVQRQQ,soluble
17,MGHHHHHHSHSQIQGVQTNDDLNNDSDDSSDNCVIVGFVKPLAERTPELVELSSDSEDLGSYEKMETVKTQEQEQSYSSGDSDVSRCSSPHSVLGKDEQINKGHCDSSTRIKSKKEEKRSTSLSSPRNLNSSVRGDRVYSPYNHRHRKRGRSRSSDSRSQSRSGHDQKNHRKHHGKKRMKSKRSRSRESSRPRGRRDKKRSRTRDSSWSRRSQTLSLSSESTSRSRSRSSDHGKRRSRSRNRDRYYLRNNYGSRYKWEY,not soluble
18,MGSDKIHHHHHHMEKTLVIEHDGEKAVVWETPQIFSENDYDYEVLEKALENTGGPLKEWRKKKYQEYKEWGFPRWKRCNLDGMSLPELSFKRIDLDVDISLLEKLDFEGAHRKFVLLGDTFFTDFRVYGDGKHMMRFDGDGIENVLVVVEKEAEIYKLSSTDRFRNTVMRILVKKNASLKFFNLDFFGNFSFDNVFIVLEEGARLVLRDFKAFGYRKTGHILVKLNKSSKADMKSFFYQNGSGITDLLYLMRFEGEDAEGKLKGNGVVDGAGKIVFRGILDVKRGSKNIVAEETEHTLVLSPDARMDAIPSLWVDENDVTASHSASSSSLDEDELFYLMTRGVDEIESKKLIVRGVFNELLDELDESVKGEVENVVNRIV,not soluble
19,MKLRTKIKRVRDVELPKYAKTGDSGFDLVAAEDTVIWPGETKVVPTGLAFEIPPGYELQVRPRSGMTRNTKLRVVLGTVDSGYRGEVGVLVDNTEIPKATNMQAHVIEKGTRIAQGVIVPVITAHFEEVDELSDSERGSGGFGSTGVK,not soluble
